Source: article PMC2169463

Molecular target: GST-BLM fusion protein (human), P54132
Experiment: pull-down
Settings: remark: other sources report otherwise

Chain of GST-BLM fusion protein (human), P54132 (P54132 whole entry, the tested form may be a part): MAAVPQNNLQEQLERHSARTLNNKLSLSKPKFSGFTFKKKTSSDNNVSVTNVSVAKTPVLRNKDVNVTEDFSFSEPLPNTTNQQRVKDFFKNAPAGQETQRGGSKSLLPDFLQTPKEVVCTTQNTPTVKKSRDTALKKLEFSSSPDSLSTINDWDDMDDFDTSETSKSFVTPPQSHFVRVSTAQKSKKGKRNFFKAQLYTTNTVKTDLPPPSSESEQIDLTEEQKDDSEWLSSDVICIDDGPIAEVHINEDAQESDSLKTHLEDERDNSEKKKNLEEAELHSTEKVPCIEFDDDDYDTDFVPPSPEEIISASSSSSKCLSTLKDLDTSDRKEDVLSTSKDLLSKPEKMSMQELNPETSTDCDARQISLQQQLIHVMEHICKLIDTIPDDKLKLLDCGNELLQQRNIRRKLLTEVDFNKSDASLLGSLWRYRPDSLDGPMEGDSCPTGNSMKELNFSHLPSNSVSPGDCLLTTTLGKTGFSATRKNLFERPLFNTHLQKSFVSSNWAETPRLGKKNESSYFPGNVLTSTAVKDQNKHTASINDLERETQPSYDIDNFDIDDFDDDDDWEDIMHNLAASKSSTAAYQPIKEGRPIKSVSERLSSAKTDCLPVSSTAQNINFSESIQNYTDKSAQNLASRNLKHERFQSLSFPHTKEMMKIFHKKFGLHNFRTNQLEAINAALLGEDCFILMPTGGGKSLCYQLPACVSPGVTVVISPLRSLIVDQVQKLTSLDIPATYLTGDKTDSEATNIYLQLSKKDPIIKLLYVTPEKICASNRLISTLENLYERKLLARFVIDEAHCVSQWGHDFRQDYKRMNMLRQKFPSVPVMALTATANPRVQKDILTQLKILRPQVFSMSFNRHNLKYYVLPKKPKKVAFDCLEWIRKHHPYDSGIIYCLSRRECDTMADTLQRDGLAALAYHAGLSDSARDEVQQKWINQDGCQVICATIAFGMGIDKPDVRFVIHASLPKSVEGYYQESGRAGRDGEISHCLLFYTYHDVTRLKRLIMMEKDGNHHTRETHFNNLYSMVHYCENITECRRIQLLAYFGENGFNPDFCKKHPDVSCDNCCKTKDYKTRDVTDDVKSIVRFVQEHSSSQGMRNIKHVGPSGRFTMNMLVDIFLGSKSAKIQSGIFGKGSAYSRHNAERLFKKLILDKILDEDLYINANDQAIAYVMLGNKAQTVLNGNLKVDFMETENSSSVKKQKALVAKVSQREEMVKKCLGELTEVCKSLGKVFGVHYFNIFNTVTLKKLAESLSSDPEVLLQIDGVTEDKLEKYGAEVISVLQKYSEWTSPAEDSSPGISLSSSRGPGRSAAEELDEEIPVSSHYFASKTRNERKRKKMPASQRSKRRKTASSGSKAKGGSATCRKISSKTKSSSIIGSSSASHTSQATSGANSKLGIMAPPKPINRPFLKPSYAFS

percent of the hRAD51 in the lysate retained: 30 to 40%
B1: hRAD51, Q06609 1-339 (natural protein)
chain: MAMQMQLEANADTSVEEESFGPQPISRLEQCGINANDVKKLEEAGFHTVEAVAYAPKKELINIKGISEAKADKILAEAAKLVPMGFTTATEFHQRRSEIIQITTGSKELDKLLQGGIETGSITEMFGEFRTGKTQICHTLAVTCQLPIDRGGGEGKAMYIDTEGTFRPERLLAVAERYGLSGSDVLDNVAYARAFNTDHQTQLLYQASAMMVESRYALLIVDSATALYRTDYSGRGELSARQMHLARFLRMLLRLADEFGVAVVITNQVVAQVDGAAMFAADPKKPIGGNIIAHASTTRLYLRKGRGETRICKIYDSPCLPEAEAMFAINADGVGDAKD
